The values below come from US20250243282A1 (TRUEBINDING, published 2025).

In experiment [1] the target is T1, Recombinant human Gal3 (rhGal3) (TrueBinding, #QC200361) (human, UniProt P17931 2-250). In words: cell-based or functional assay.
For experiment [2], the target named is T1, Recombinant human Gal3 (rhGal3) …. Briefly: cell-based or functional assay. The source holds these as a separate data set.
Note: test concentration or dose not given here.

B1: 3B11.2G2 (antibody, mouse IgG2a, V domains shown)
VH: QIQLVQSGPELKKPGETVKISCKTSGYKFKTYVMSWVKQAPGKALKWMGWINTYSGVPTYADDFKGRFAFSLETSASTAYLEIINLKNEDTATYFCARDGNYGDPMDYWGQGTSVTVSS
VL: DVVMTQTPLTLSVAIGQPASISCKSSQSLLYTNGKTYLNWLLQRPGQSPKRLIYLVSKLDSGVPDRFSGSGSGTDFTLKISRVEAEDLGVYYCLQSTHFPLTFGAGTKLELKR
B1: in experiment [1], the “% inhibition of CD62L shedding” value is 92.7%. Also, in experiment [2], the “% inhibition of IL-6 secretion” value is -4.6% and the “% inhibition of TNFα secretion” value worked out at 46.1%.

B2: 13A12.2E5 (antibody, mouse IgG2a, V domains shown)
VH: QIQLVQSGPELKKPGETVKISCKTSGYKFKTYVMSWVKQAPGKALKWMGWINTYSGVPTYADDFKGRFAFSLETSASTAYLEIINLKNEDTATYFCARDGNYGDPMDYWGQGTSVTVSS
VL: DVVMTQTPLTLSVAIGQPASISCKSSQSLLYTNGKTYLNWLLQRPGQSPKRLIYLLSKLDSGVPDRFSASGSGTDFTLKISRVEAEDLGVYYCLQSTHFPLTFGAGTKLEMKR
As for B2, the “% inhibition of CD62L shedding” value in experiment [1] was determined as 87.1%. Moreover, in experiment [2], the “% inhibition of IL-6 secretion” value was 39.4% and the “% inhibition of TNFα secretion” value came to 61.8%.

B3: 15G7.2A7 (antibody, human IgG4 S228P, kappa, V domains shown)
VH: EVQLQQSGPELVKPGASVKISCKASGYTFTDYYMNWVKQSHGKSLEWIGDINPNNGGTNYNQKFKGKATLTVDKSSSTAYMELRSLTSEDSAVYYCTSGYGFPYWGQGTLVTVSA
VL: DIQMNQSPSSLSASLGDTISITCRASQNINIWLSWYQQKPGNIPQLLIYKASNLHTGVPSRFSGSGSGTDFTLTISSLQPEDIATYYCLQGQSYPLTFGAGTKLVMKR
B3: in experiment [1], the “% inhibition of CD62L shedding” value was found to be 110%. In experiment [2], the “% inhibition of IL-6 secretion” value was found to be 31% and the “% inhibition of TNFα secretion” value came to 46.1%.

B4: 20D11.2C6 (antibody, mouse IgG2a, V domains shown)
VH: EVQLQQSGPELVKPGASVKISCKASGYTFTDFYINWVKQSHGKSLEWIGDINPKNGGINYNPKFKIKATLTVDKSSSTSYMDLRGLTSEDSAVYYCTSGYGFPYWGQGTLVTVSA
VL: DIQMNQSPSSLSASLGDTITITCRASQNIYIWLSWYQQKPGNIPKLLIYKASNLHTGVPSRFSGSGSGTDFTLTISTLQPEDIATYFCLQGQSYPLTFGAGTKLEMKR
In the case of B4, the “% inhibition of CD62L shedding” value in experiment [1] amounted to 89.4%. Further, in experiment [2], the “% inhibition of IL-6 secretion” value was found to be 43.7% and the “% inhibition of TNFα secretion” value is 69.1%.

B5: 849.5H1 (antibody, V domains shown)
VH: QVQLKESGPVLVAPSQSLSITCTVSGFSLTSYGIHWVRQPPGKGLEWLGVIWAGGSTNYNSALMSRLSISKDNSKSQVFLKMNSLQIDDTAMYYCAKPPHDYDQAWFAYWGQGTLITVSA
VL: DIQMNQSPSSLSASLGDTITITCHASQNINVWLSWYQQKPGNIPKLLIYQASNLHTGVPSRFSGRGSGTGFTLTISSLQPEDIATYYCQQGQSSPFTFGSGTKLEIK
With B5, the “% inhibition of CD62L shedding” value in experiment [1] was determined as 87.5%.

B6: 847.16D10 (antibody, V domains shown)
VH: QVQLQQSGAELVRPGASVKLSCKASGYTFTGYWLNWVKQRPGQGLEWIGMIDPSDSETHYNQVFKDKATMTVDRSSSTAYMQLSGLTSEDSAVYYCANSNYASGSWGQGTTLTVSS
VL: QAVVTQESALTTSPGETVTLTCRSSTGAVTTSNYANWDQEKPDHLFTGLIGGTNNRAPGVPARFSGSLIGDKAALTITGAQTEDEAIYFCALWYSNHLVFGGGTKVTVL
Take B6: the “% inhibition of CD62L shedding” value in experiment [1] came out at 14.4%.

B7: F846TC.14E4 (antibody, human IgG4 S228P, kappa, V domains shown)
VH: QVTLKESGPGILQPSQTLSLTCSFSGFSLSTSGMGVGWIRQPSGKGLEWLAHIWWDDDKYYNTALKSGLTISKDASKNQVFLKIASMDTADTATYYCARNLYDGSYGYYAMDYWGQGTSVTVSS
VL: DIVMTQAAFSNPVTLGTSASISCRSSKSLLHTNGITFLYWYLQKPGQSPQPLIYQMSNLASGVPDRFSSSGSGTDFTLRISRVEAEDVGVYYCAQNLELPWTFGGGTKLEINR
Take B7: the “% inhibition of CD62L shedding” value in experiment [1] is 90.3%. Besides, in experiment [2], the “% inhibition of IL-6 secretion” value stood at 15.7% and the “% inhibition of TNFα secretion” value came to 50.1%.

B8: 20H5.A3 (antibody, mouse IgG2a, V domains shown)
VH: QIQLVQSGPELKKPGESVKISCKASGYAFTTYGMSWVQQAPGKGLKWMGWVNTYSGVPTCADDFKGRFAFSLETSASTAYLQINNLRNEDTATYFCARGPYAMDYWGQGTSVTVSS
VL: DIQMTQTTSSLSASLGDRVTINCSASQDISNYLNWYQQKPDGTVKLLIYYTSSLLSGVPSRFSGSGSGTDYSLTISNLEPEDIATYFCQQYSKLPYTFGSGTHLEIKR
With B8, the “% inhibition of CD62L shedding” value in experiment [1] was found to be 66.3%. Also, in experiment [2], the “% inhibition of IL-6 secretion” value was determined as 77.5% and the “% inhibition of TNFα secretion” value came out at 60.8%.

B9: 23H9.2E4 (antibody, mouse IgG2a, V domains shown)
VH: QIQLVQSGPELKKPGETVKISCKASGYTFTTYAMSWVKQAPGKGLKWMGWINTYSGVPTYADDLKGRFAFSLETSASTAYLQINNLKNEDTATYFCARGPYAMDYWGQGTSVTVSS
VL: DIQMTQTTSSLSASLGDRVTISCSASQGINNYLNWYQQKPDGTVKLLIYYASSLHSGVPSRFSGSGSGTDYSLTISNLEPEDIATYYCQQYSQVPYTFGSGTKLEIKR
For B9, in experiment [1], the “% inhibition of CD62L shedding” value worked out at 91.9%. In experiment [2], the “% inhibition of IL-6 secretion” value amounted to 92.6% and the “% inhibition of TNFα secretion” value came out at 100%.

B10: F846TC.7F10 (antibody, human IgG4 S228P, kappa, V domains shown)
VH: EVQLVESGGDLVKPGGSLKLSCAASGFTFSNYGLSWIRQTPDKRLEWVATISSGGSYTYYPDSVKGRFTISRDSAKNTLYLQMSSLKSEDTAMYYCARHAHYYGVSPYYFDYWGQGTCLTVSS
VL: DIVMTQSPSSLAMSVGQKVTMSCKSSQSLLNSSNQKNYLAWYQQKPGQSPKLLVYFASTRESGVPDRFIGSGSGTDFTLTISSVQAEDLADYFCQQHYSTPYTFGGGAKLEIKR
As for B10, the “% inhibition of CD62L shedding” value in experiment [1] is 96.1%. Besides, in experiment [2], the “% inhibition of IL-6 secretion” value is -2.5% and the “% inhibition of TNFα secretion” value is 72.3%.

B11: 2D10-VH0-VL0 (antibody, human IgG4 S228P, kappa, V domains shown)
VH: QVQLQQSGPELVKPGASVKISCKASGYTFTDYYINWVKQRPGQGLEWIGWIYPGSQDTKYNEKFKGKATLTVDTSSSTAYMQLGSLTSEDSAVYFCANYFGSSGWFFDVWGTGTTVTVSS
VL: DIVMTQAAFSNPVTLGTSASISCRSSKSLLHSDGITYLYWYLQRPGQSPQLLIYRMSNLASGVPDRFSGSGSGTDFTLRISRVEAEDVGVYYCAQMIEFPLTFGAGTILELKR
Take B11: the “% inhibition of CD62L shedding” value in experiment [1] was 62.4%. Moreover, in experiment [2], the “% inhibition of IL-6 secretion” value came to 21.7% and the “% inhibition of TNFα secretion” value stood at 39.6%.

B12: 14H10.2C9 (antibody, mouse IgG2a, V domains shown)
VH: QIQLVQSGPELKKPGETVKISCKASGYTFTTYGMGWVKQAPGKDLKWMGWINTYSGVPTYADDFKGRFAFSLETSASTAYLQISNLKNEDTATYFCSTPYEYDGAYWGQGTLVTVSA
VL: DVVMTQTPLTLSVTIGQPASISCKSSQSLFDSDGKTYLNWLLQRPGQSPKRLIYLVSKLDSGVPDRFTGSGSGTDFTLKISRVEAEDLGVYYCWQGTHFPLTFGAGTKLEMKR
Regarding B12, the “% inhibition of CD62L shedding” value in experiment [1] worked out at 86.3%. In experiment [2], the “% inhibition of IL-6 secretion” value is 55.6% and the “% inhibition of TNFα secretion” value was determined as 54%.

B13: 15F10.2D6 (antibody, mouse IgG2a, V domains shown)
VH: EVQLVESGGGLVKPGGSLKLSCAASGFAFSSYAMSWVRQTPEKRLEWVATISDGGVYTYYTDHVKGRFTISRDNAEDNLYLQMSHLKSEDTAMYYCVRDGGYWGQGTTLTVSS
VL: DVLMTQTPLSLPVSLGDQASISCRSSQSIVHNNGNTYLEWYLQKPGQSPKLLIYKVSNRFSGVPDRFSGSGSGTDFTLKISRVEAEDLGVYYCFQGSHVPLTFGGGTKLELKR
As to B13, in experiment [1], the “% inhibition of CD62L shedding” value came out at 82.5%. Moreover, in experiment [2], the “% inhibition of IL-6 secretion” value came to 51.5% and the “% inhibition of TNFα secretion” value came out at 73.5%.

B14: F849C.8D10 (antibody, human IgG4 S228P, kappa, V domains shown)
VH: QVQLQQTGAELVKPGASVKLSCKASGYTFTSYWINWVKQRPGQGLEWIGNIYPGSSSIYYSEKFKSKATLTVDTSSSTAYMQLSSLTSDDSAVYYCARWGYWGQGTTLTVSS
VL: DVLMTQTPLSLPVSLGDQASISCRSSQDIVHSSGNTYLEWYLQKPGQSLKLLIYKVSNRFSGVPDRFSASGSGTDFTLKISRVEAEDLGVYYCFQGSHVPPTFGSGTKLEIKR
Regarding B14, in experiment [1], the “% inhibition of CD62L shedding” value was 180%. Further, in experiment [2], the “% inhibition of IL-6 secretion” value is -75.8% and the “% inhibition of TNFα secretion” value was -5.5%.

B15: 7D8.2D8 (antibody, mouse IgG2a, V domains shown)
VH: EVQLVESGGGLVKPGGSLKLSCAASGFTFSSYAMSWVRQTPEKRLEWVATISDGGIYTYYPDNVKGRFTISRDNAKNNLFLQMSHLKSEDTAMYYCVRDGGYWGQGTTLTVSS
VL: DVLMTQTPLSLPVSLGDQASISCRSSQSIVHSNGNTYLEWYLQKPGQSPKLLIYKVSNRFSGVPDRFSGSGSGTDFTLKISRVEAEDLGVYYCFQGSHVPLTFGAGTKLELKR
In the case of B15, the “% inhibition of CD62L shedding” value in experiment [1] came to 88.6%. Besides, in experiment [2], the “% inhibition of IL-6 secretion” value was found to be 17.4% and the “% inhibition of TNFα secretion” value was -11.5%.

B16: 847.13E2-mH0mL1 (antibody, V domains shown)
VH: EVQLQQSGPELVKPGASVKVSCKASGYSFTDYNMYWVMQSHGKSLEWIGYIDPYNDATSYSQKFTGKATLTVDKSSSTAFMHLNSLTSEDSAVYYCARWGRYEYYAMDYWGQGTSVTVSS
VL: DIVMTQSPASLPVSLGQRATISCRASKSVTTSAYSYIHWYQQRPGQPPKLLIYLASNLESGVPARFSGSGSGTDFTLNIHPVEEEDAATYYCQHNRELPPTFGGGTKLEIN
On to B16, for which the “% inhibition of CD62L shedding” value in experiment [1] was determined as 79.9%.

B17: 847.13E2-mH0mL2 (antibody, V domains shown)
VH: EVQLQQSGPELVKPGASVKVSCKASGYSFTDYNMYWVMQSHGKSLEWIGYIDPYNDATSYSQKFTGKATLTVDKSSSTAFMHLNSLTSEDSAVYYCARWGRYEYYAMDYWGQGTSVTVSS
VL: DIVLTQSPATLSVTPGDSVSFSCRASQIINNNLHWYQQKSHESPRLLIRYTSQSISGIPSRFSGSGSGTDFTLSINNVETEDFGMYFCQQTNSWPLTFGAGTKLELK
As to B17, in experiment [1], the “% inhibition of CD62L shedding” value came out at 18.8%.

B18: 849.2D7 (antibody, V domains shown)
VH: QVQLQQSGPQLVRPGASVKISCKASGYSFTNYWMHWVKQRPGQGLEWIGMIDPSDSETRLNQKFKDKATLTVDKSSSTAYMQLSSPTSEDSAVYYCATGRPDYWGQGTTLTVSS
VL: DIVMTQSHKFMSTSVGDRVSITCKASQDVSTAVAWYQQKPGQSPKLLIYWASTRHTGVPDRFTGSGSGTDYTLTISSVQAEDLALYYCQQHYSTPYTFGGGTKLEIK
As for B18, the “% inhibition of CD62L shedding” value in experiment [1] was 78.1%. In experiment [2], the “% inhibition of IL-6 secretion” value is 39% and the “% inhibition of TNFα secretion” value turned out to be 42.7%.

B19: 847.23F11 (antibody, V domains shown)
VH: QVQLQQSGAELVRPGASVKLSCKASGYTFTSSWMNWVKQRPGQGLDWIGMIDPSDSETHYNQMFKDKATLTVDKSSNTAYMQLSRLTSEDSAVYYCVNSNYESGYWGQGTTLTVSS
VL: DILMTQSHKFMSTSVGDRVSITCKASQDVSSVVVWYQQKPGQSPKQLIYWASTRHTGVPDRFTGSGSGTDYTLTISSVQAEDLALYYCQQHYSTPYTFGGGTKLEIK
As for B19, in experiment [1], the “% inhibition of CD62L shedding” value was determined as 15.2%.
